From patent US20150355199A1 (ROCHE DIAGNOSTICS OPERATIONS, published 2015)

Assays:
CFHR5-GS-Avi-GS-His8 = target: T1, CFHR5-GS-Avi-GS-His8 (human, UniProt Q9BXR6 19-569); assay: SPR (BiaCore), antibody captured by rabbit anti-mouse IgG on CM5 chip, antigen in solution
T1 construct: Tagged recombinant protein from HEK293 cells; also called recombinant CFHR5
T1 sequence: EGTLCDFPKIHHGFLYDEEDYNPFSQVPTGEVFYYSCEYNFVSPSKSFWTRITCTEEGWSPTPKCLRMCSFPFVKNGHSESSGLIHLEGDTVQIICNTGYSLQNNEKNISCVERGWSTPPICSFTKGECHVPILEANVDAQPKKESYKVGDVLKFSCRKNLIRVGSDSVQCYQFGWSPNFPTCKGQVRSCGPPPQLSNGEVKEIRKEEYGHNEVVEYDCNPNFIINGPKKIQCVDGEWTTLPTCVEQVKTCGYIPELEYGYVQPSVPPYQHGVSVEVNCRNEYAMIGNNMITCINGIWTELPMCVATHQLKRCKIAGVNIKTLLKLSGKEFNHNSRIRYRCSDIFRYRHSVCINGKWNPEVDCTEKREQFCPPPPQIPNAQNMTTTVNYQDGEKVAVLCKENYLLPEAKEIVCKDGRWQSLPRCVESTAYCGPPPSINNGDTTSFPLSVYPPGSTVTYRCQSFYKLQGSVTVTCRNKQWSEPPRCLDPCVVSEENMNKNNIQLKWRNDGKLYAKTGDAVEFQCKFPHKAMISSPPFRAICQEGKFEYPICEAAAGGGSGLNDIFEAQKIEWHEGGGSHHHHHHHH
Experimental: (§1) The antibodies MAB<CFH/CFHR1>M-L20/3, MAB<CFHR1>M-442127, MAB<CFHR1>M-4.1.3 and MAB<CFHR1>M-5.1.5 were analyzed on the BiaCore. The chip CM5 coated with a rabbit anti-Mouse IgG was used to bind the purified monoclonal mouse antibodies. In the next step native CFH or the recombinant CFHR1, CFHR2, CFHR3, CFHR4B or CFHR5 proteins according to SEQ ID No.: 9 to 13 were added to determine the binding affinities of the different antibodies.

[1] = target: T2, native human complement factor H (CFH) (human, UniProt P08603 19-1231); assay: as above
T2 construct: Native CFH; also called native CFH; serum-purified CFH
Experimental: as §1

[2] = target: T3, recombinant CFHR1-1-5 (tag-less, full-length mature human complement factor H-related protein 1) (human, UniProt Q03591 19-330); assay: as above
T3 construct: also called recCFHR1
T3 sequence: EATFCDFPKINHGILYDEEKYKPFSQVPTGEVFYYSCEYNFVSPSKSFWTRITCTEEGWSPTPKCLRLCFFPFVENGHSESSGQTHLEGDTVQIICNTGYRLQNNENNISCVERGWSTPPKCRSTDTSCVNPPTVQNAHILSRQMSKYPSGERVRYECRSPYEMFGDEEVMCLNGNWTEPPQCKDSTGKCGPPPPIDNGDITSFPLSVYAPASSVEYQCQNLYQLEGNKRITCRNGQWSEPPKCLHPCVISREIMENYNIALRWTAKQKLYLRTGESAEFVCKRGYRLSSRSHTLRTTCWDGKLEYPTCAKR
Experimental: as §1

CFHR3-GS-Avi-GS-His8 = target: T4, CFHR3-GS-Avi-GS-His8 (human, UniProt Q02985 19-330); assay: SPR (BiaCore), antibody captured by rabbit anti-mouse IgG on CM5 chip; n.d. = not detectable
T4 construct: Tagged recombinant protein from HEK293 cells; also called recombinant CFHR3
T4 sequence: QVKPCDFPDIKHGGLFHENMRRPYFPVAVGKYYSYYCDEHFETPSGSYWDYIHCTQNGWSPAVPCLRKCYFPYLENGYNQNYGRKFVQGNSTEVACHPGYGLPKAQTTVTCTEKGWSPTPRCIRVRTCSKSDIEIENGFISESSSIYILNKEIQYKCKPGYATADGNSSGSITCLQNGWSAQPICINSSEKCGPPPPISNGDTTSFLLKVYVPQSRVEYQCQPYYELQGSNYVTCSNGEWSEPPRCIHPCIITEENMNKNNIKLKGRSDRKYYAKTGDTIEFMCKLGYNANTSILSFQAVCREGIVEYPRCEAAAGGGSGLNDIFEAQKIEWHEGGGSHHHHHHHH
Experimental: as §1

CFHL1-GS-Avi-GS-His8 = target: T5, CFHL1-GS-Avi-GS-His8 (human, UniProt P08603 19-445); assay: as above
T5 construct: also called complement factor H isoform 2
Experimental: as §1

CFHR2-GS-Avi-GS-His8 = target: T6, CFHR2-GS-Avi-GS-His8 (human); assay: as above
T6 construct: Tagged recombinant protein from HEK293 cells; also called recombinant CFHR2
T6 chain: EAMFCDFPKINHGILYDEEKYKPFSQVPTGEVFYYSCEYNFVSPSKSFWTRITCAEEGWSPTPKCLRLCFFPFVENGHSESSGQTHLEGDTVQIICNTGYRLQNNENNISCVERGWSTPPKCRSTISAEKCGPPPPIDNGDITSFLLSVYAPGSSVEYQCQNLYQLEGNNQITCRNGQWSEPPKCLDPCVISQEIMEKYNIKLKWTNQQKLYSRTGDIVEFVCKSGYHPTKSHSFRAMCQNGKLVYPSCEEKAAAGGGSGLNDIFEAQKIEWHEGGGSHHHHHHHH
Experimental: as §1

[3] = target: T7, CFHR4-GS-Avi-GS-His8 (CFHR4 Variant B) (human); assay: as above
T7 construct: Tagged recombinant protein from HEK293 cells; also called CFHR4B; recombinant CFHR4B
T7 chain: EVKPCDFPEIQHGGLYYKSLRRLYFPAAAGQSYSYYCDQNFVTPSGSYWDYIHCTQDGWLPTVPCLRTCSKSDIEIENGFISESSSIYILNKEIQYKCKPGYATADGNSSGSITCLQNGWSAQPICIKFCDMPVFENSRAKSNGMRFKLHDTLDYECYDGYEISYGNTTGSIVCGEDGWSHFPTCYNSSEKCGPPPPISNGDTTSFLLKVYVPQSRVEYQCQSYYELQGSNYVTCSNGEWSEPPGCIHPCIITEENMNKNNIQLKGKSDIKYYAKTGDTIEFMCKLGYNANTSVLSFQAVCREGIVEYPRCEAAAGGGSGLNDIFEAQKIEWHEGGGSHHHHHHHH
Experimental: as §1

Kd (CFHR5-GS-Avi-GS-His8): 10 nM | Kd [1]: 8 nM | Kd [2]: 0.1 nM | binding result (CFHR3-GS-Avi-GS-His8): no binding | binding result (CFHL1-GS-Avi-GS-His8): no binding | binding result (CFHR2-GS-Avi-GS-His8): no binding | binding result [3]: no binding
B1: MAB<CFH/CFHR1>M-L20/3 (antibody, V domains shown)
VH: EVLLQQSGPELVKPGASVKIPCKASGYTFTDYNMDWVKQSHGKSLEWIGDINPNNGFTIYNQKFKGKATLTVDKSSSTAYMELRSLTSEDTAIYYCAINWDWFAYWGQGTLVTVSA
VL: DVLMTQTPLSLPVSLGDQASISCRSSQSIVHNNGNTYLEWYLLKPGQSPKLLIYKVSNRFSGVPDRFSGSGSGTDFTLKISRVEAEDLGVYYCFQGSHVPYTFGGGTKLEIKR
notes: Bought monoclonal mouse IgG; also called anti-Complement Factor H, Clone: L20/3; Thermo Scientific cat. no; GAU 020-03-02
